Test results taken from doi:10.1101/2025.02.04.636384 (bioRxiv, 2025).

Biological target: the molecule itself
Experiment: SEC

B1: Aeropyrum pernix Kv (KvAP) channel, wild type (natural protein, UniProt Q9YDF8 1-295, looked up)
chain: MSVERWVFPGCSVMARFRRGLSDLGGRVRNIGDVMEHPLVELGVSYAALLSVIVVVVEYTMQLSGEYLVRLYLVDLILVIILWADYAYRAYKSGDPAGYVKKTLYEIPALVPAGLLALIEGHLAGLGLFRLVRLLRFLRILLIISRGSKFLSAIADAADKIRFYHLFGAVMLTVLYGAFAIYIVEYPDPNSSIKSVFDALWWAVVTATTVGYGDVVPATPIGKVIGIAVMLTGISALTLLIGTVSNMFQKILVGEPEPSCSPAKLAEMVSSMSEEEFEEFVRTLKNLRRLENSMK
  stoichiometry N: 4
